According to PMC4963197, “Phosphorylation acts positively and negatively to regulate MRTF-A subcellular localisation and activity” (eLife, 2016):

Key:
G-actin = target: T1, G-actin (Oryctolagus cuniculus, UniProt P68135); experiment: Size exclusion chromatography of G-actin / MRTF-A(67–199) complexes; type: binding; details: SEC, recombinant MRTF-A(67–199)
T1 construct: Actin was prepared as described ([Mouilleron et al., 2008]); from tissue; host or cells: rabbit skeletal muscle (own knowledge of the cited method)
Procedure: GST-fusions were expressed in E. coli Rosetta (DE3) pLysS (Novagen). Lysis was in 50 mM Tris-HCl pH 7.5, 300 mM NaCl, 1% TX-100, 5 mM DTT, 10 mM EDTA pH 8, 1 mM PMSF, 15 μg/mL Benzamidine, followed by passage through a French press. Following adsorption onto glutathione-Sepharose, proteins were recovered by cleavage with GST-3C protease at 4°C overnight in 50 mM Tris-HCl (pH 7.5), 100 mM NaCl, 1 mM DTT. Crm1 and Ran(1–180) Q69L were purified as described ([Güttler et al., 2010]).
Preparation of LatB-actin and fluorescence polarisation anisotropy assay were described ([Guettler et al., 2008]). Size exclusion chromatography was on Superdex 200 column equilibrated in 20 mM Tris (pH 8), 100 mM NaCl, 3 mM MgCl2, 0.2 mM EGTA, 0.3 mM TCEP [(tris(2-carboxyethyl)phosphine)], 5% (v/v) glycerol, calibrated with globular proteins of known molecular weight.

Crm1 = experiment: GST pulldown of recombinant Crm1; type: binding; details: Ran 1–180 Q69L, 3 hr at 4°C
Procedure: For GST pulldown assays, glutathione-sepharose was saturated with GST-fusion proteins, washed in binding buffer (50 mM Tris-HCl pH 7.5, 100 mM NaCl, 10 mM MgCl2, 0.05% NP-40), and incubated with purified recombinant Crm1, Ran(1–180) Q69L or ERK2 for 3 hr at 4°C. After four washes with binding buffer, proteins were eluted in SDS loading buffer for analysis. For kinase assays, glutathione-Sepharose was saturated with GST-MRTF 2–199, washed in binding buffer, and incubated with purified recombinant ERK2 and actin in binding buffer with 250 μM ATP and 10 mg/ml BSA, at 30°C. The reaction was stopped by addition of SDS loading buffer.

apparent molecular mass of G-actin complex (G-actin; Superdex 200, 20 mM Tris (pH 8), 100 mM NaCl, 3 mM MgCl2, 0.2 mM EGTA, 0.3 mM TCEP, 5% glycerol) [kDa]	apparent stoichiometry of G-actin binding (G-actin; Superdex 200, pH 8, calibrated with globular proteins) [actins]	Molecule	recovery of recombinant Crm1 (Crm1)
139.8	3.0	MRTF-A(67–199) WT: recombinant MRTF-A(67–199), intact RPEL domain (protein, UniProt Q8K4J6 67-199, looked up, fragment) SRPERAELVRMHILEETSAEPSLQAKQLKLKRARLADDLNEKIAQRPGPMELVEKNILPVESSLKEAIIVGQVNYPKVADSSSFDEDSSDALSPEQPASHESQGSVPSPLESRVSDPLPSATSISPTQVLSQL	–
–	–	MRTF residues 2–67: MRTF-A N-terminal residues 2–67 containing NES1 (protein, UniProt Q8K4J6 2-67, looked up, fragment) TLLEPEMLMMAVQSVLQLKLQQRRTREELVSQGIMPPLKSPAAFHEQRRSLERARTEDYLKRKIRS	could recover recombinant Crm1 from solution in a pulldown assay
